Experimental data published in article PMC7886051, “Redesigning the Molecular Choreography to Prevent Hydroxylation in Germacradien-11-ol Synthase Catalysis” (ACS Catalysis, 2021).

B1: Gd11olS (germacradien-11-ol synthase; N-terminal domain of geosmin synthase) (Streptomyces coelicolor A3(2); V187A) (protein)
chain: MTQQPFQLPHFYLPHPARLNPHLDEARAHSTTWAREMGMLEGSGVWEQSDLEAHDYGLLCAYTHPDCDGPALSLITDWYVWVFFFDDHFLEKYKRSQDRLAGKAHLDRLPLFMPLDDAAGMPEPRNPVEAGLADLWTRTVPAMSADWRRRFAVATEHLLNESMWELSNINEGRVANPVEYIEMRRKAGGAPWSAGLVEYATAEVPAAVAGTRPLRVLMETFSDAVHLRNDLFSYQREVEDEGELSNGVLVLETFFGCTTQEAADLVNDVLTSRLHQFEHTAFTEVPAVALEKGLTPLEVAAVGAYTKGLQDWQSGGHEWHMRSSRYMNKGERPLAGWQALTGPGTSAADVGALLADAVAQRARSYT
notes: N-terminal domain, residues 1-366 of geosmin synthase; codon-optimized synthetic gene in pET28a, expressed in E. coli, purified to homogeneity; tag details in supplement
B2: Gd11olS (germacradien-11-ol synthase; N-terminal domain of geosmin synthase) (Streptomyces coelicolor A3(2); G188A) (protein)
chain: MTQQPFQLPHFYLPHPARLNPHLDEARAHSTTWAREMGMLEGSGVWEQSDLEAHDYGLLCAYTHPDCDGPALSLITDWYVWVFFFDDHFLEKYKRSQDRLAGKAHLDRLPLFMPLDDAAGMPEPRNPVEAGLADLWTRTVPAMSADWRRRFAVATEHLLNESMWELSNINEGRVANPVEYIEMRRKVAGAPWSAGLVEYATAEVPAAVAGTRPLRVLMETFSDAVHLRNDLFSYQREVEDEGELSNGVLVLETFFGCTTQEAADLVNDVLTSRLHQFEHTAFTEVPAVALEKGLTPLEVAAVGAYTKGLQDWQSGGHEWHMRSSRYMNKGERPLAGWQALTGPGTSAADVGALLADAVAQRARSYT
notes: as for B1
B3: Gd11olS (germacradien-11-ol synthase; N-terminal domain of geosmin synthase) (Streptomyces coelicolor A3(2); G188S) (protein)
chain: MTQQPFQLPHFYLPHPARLNPHLDEARAHSTTWAREMGMLEGSGVWEQSDLEAHDYGLLCAYTHPDCDGPALSLITDWYVWVFFFDDHFLEKYKRSQDRLAGKAHLDRLPLFMPLDDAAGMPEPRNPVEAGLADLWTRTVPAMSADWRRRFAVATEHLLNESMWELSNINEGRVANPVEYIEMRRKVSGAPWSAGLVEYATAEVPAAVAGTRPLRVLMETFSDAVHLRNDLFSYQREVEDEGELSNGVLVLETFFGCTTQEAADLVNDVLTSRLHQFEHTAFTEVPAVALEKGLTPLEVAAVGAYTKGLQDWQSGGHEWHMRSSRYMNKGERPLAGWQALTGPGTSAADVGALLADAVAQRARSYT
notes: as for B1
B4: Gd11olS (germacradien-11-ol synthase; N-terminal domain of geosmin synthase) (Streptomyces coelicolor A3(2); W312F) (protein)
chain: MTQQPFQLPHFYLPHPARLNPHLDEARAHSTTWAREMGMLEGSGVWEQSDLEAHDYGLLCAYTHPDCDGPALSLITDWYVWVFFFDDHFLEKYKRSQDRLAGKAHLDRLPLFMPLDDAAGMPEPRNPVEAGLADLWTRTVPAMSADWRRRFAVATEHLLNESMWELSNINEGRVANPVEYIEMRRKVGGAPWSAGLVEYATAEVPAAVAGTRPLRVLMETFSDAVHLRNDLFSYQREVEDEGELSNGVLVLETFFGCTTQEAADLVNDVLTSRLHQFEHTAFTEVPAVALEKGLTPLEVAAVGAYTKGLQDFQSGGHEWHMRSSRYMNKGERPLAGWQALTGPGTSAADVGALLADAVAQRARSYT
notes: as for B1
B5: Gd11olS (germacradien-11-ol synthase; N-terminal domain of geosmin synthase) (Streptomyces coelicolor A3(2); W312A) (protein)
chain: MTQQPFQLPHFYLPHPARLNPHLDEARAHSTTWAREMGMLEGSGVWEQSDLEAHDYGLLCAYTHPDCDGPALSLITDWYVWVFFFDDHFLEKYKRSQDRLAGKAHLDRLPLFMPLDDAAGMPEPRNPVEAGLADLWTRTVPAMSADWRRRFAVATEHLLNESMWELSNINEGRVANPVEYIEMRRKVGGAPWSAGLVEYATAEVPAAVAGTRPLRVLMETFSDAVHLRNDLFSYQREVEDEGELSNGVLVLETFFGCTTQEAADLVNDVLTSRLHQFEHTAFTEVPAVALEKGLTPLEVAAVGAYTKGLQDAQSGGHEWHMRSSRYMNKGERPLAGWQALTGPGTSAADVGALLADAVAQRARSYT
notes: as for B1
B6: Gd11olS (germacradien-11-ol synthase; N-terminal domain of geosmin synthase) (Streptomyces coelicolor A3(2)) (protein)
chain: MTQQPFQLPHFYLPHPARLNPHLDEARAHSTTWAREMGMLEGSGVWEQSDLEAHDYGLLCAYTHPDCDGPALSLITDWYVWVFFFDDHFLEKYKRSQDRLAGKAHLDRLPLFMPLDDAAGMPEPRNPVEAGLADLWTRTVPAMSADWRRRFAVATEHLLNESMWELSNINEGRVANPVEYIEMRRKVGGAPWSAGLVEYATAEVPAAVAGTRPLRVLMETFSDAVHLRNDLFSYQREVEDEGELSNGVLVLETFFGCTTQEAADLVNDVLTSRLHQFEHTAFTEVPAVALEKGLTPLEVAAVGAYTKGLQDWQSGGHEWHMRSSRYMNKGERPLAGWQALTGPGTSAADVGALLADAVAQRARSYT
notes: as for B1
B7: Gd11olS (germacradien-11-ol synthase; N-terminal domain of geosmin synthase) (Streptomyces coelicolor A3(2); R228V) (protein)
chain: MTQQPFQLPHFYLPHPARLNPHLDEARAHSTTWAREMGMLEGSGVWEQSDLEAHDYGLLCAYTHPDCDGPALSLITDWYVWVFFFDDHFLEKYKRSQDRLAGKAHLDRLPLFMPLDDAAGMPEPRNPVEAGLADLWTRTVPAMSADWRRRFAVATEHLLNESMWELSNINEGRVANPVEYIEMRRKVGGAPWSAGLVEYATAEVPAAVAGTRPLRVLMETFSDAVHLVNDLFSYQREVEDEGELSNGVLVLETFFGCTTQEAADLVNDVLTSRLHQFEHTAFTEVPAVALEKGLTPLEVAAVGAYTKGLQDWQSGGHEWHMRSSRYMNKGERPLAGWQALTGPGTSAADVGALLADAVAQRARSYT
notes: as for B1
B8: Gd11olS (germacradien-11-ol synthase; N-terminal domain of geosmin synthase) (Streptomyces coelicolor A3(2); Q313A) (protein)
chain: MTQQPFQLPHFYLPHPARLNPHLDEARAHSTTWAREMGMLEGSGVWEQSDLEAHDYGLLCAYTHPDCDGPALSLITDWYVWVFFFDDHFLEKYKRSQDRLAGKAHLDRLPLFMPLDDAAGMPEPRNPVEAGLADLWTRTVPAMSADWRRRFAVATEHLLNESMWELSNINEGRVANPVEYIEMRRKVGGAPWSAGLVEYATAEVPAAVAGTRPLRVLMETFSDAVHLRNDLFSYQREVEDEGELSNGVLVLETFFGCTTQEAADLVNDVLTSRLHQFEHTAFTEVPAVALEKGLTPLEVAAVGAYTKGLQDWASGGHEWHMRSSRYMNKGERPLAGWQALTGPGTSAADVGALLADAVAQRARSYT
notes: as for B1
B9: Gd11olS (germacradien-11-ol synthase; N-terminal domain of geosmin synthase) (Streptomyces coelicolor A3(2); Q313N) (protein)
chain: MTQQPFQLPHFYLPHPARLNPHLDEARAHSTTWAREMGMLEGSGVWEQSDLEAHDYGLLCAYTHPDCDGPALSLITDWYVWVFFFDDHFLEKYKRSQDRLAGKAHLDRLPLFMPLDDAAGMPEPRNPVEAGLADLWTRTVPAMSADWRRRFAVATEHLLNESMWELSNINEGRVANPVEYIEMRRKVGGAPWSAGLVEYATAEVPAAVAGTRPLRVLMETFSDAVHLRNDLFSYQREVEDEGELSNGVLVLETFFGCTTQEAADLVNDVLTSRLHQFEHTAFTEVPAVALEKGLTPLEVAAVGAYTKGLQDWNSGGHEWHMRSSRYMNKGERPLAGWQALTGPGTSAADVGALLADAVAQRARSYT
notes: as for B1
B10: Gd11olS (germacradien-11-ol synthase; N-terminal domain of geosmin synthase) (Streptomyces coelicolor A3(2); H320A) (protein)
chain: MTQQPFQLPHFYLPHPARLNPHLDEARAHSTTWAREMGMLEGSGVWEQSDLEAHDYGLLCAYTHPDCDGPALSLITDWYVWVFFFDDHFLEKYKRSQDRLAGKAHLDRLPLFMPLDDAAGMPEPRNPVEAGLADLWTRTVPAMSADWRRRFAVATEHLLNESMWELSNINEGRVANPVEYIEMRRKVGGAPWSAGLVEYATAEVPAAVAGTRPLRVLMETFSDAVHLRNDLFSYQREVEDEGELSNGVLVLETFFGCTTQEAADLVNDVLTSRLHQFEHTAFTEVPAVALEKGLTPLEVAAVGAYTKGLQDWQSGGHEWAMRSSRYMNKGERPLAGWQALTGPGTSAADVGALLADAVAQRARSYT
notes: as for B1
B11: Gd11olS (germacradien-11-ol synthase; N-terminal domain of geosmin synthase) (Streptomyces coelicolor A3(2); H320F) (protein)
chain: MTQQPFQLPHFYLPHPARLNPHLDEARAHSTTWAREMGMLEGSGVWEQSDLEAHDYGLLCAYTHPDCDGPALSLITDWYVWVFFFDDHFLEKYKRSQDRLAGKAHLDRLPLFMPLDDAAGMPEPRNPVEAGLADLWTRTVPAMSADWRRRFAVATEHLLNESMWELSNINEGRVANPVEYIEMRRKVGGAPWSAGLVEYATAEVPAAVAGTRPLRVLMETFSDAVHLRNDLFSYQREVEDEGELSNGVLVLETFFGCTTQEAADLVNDVLTSRLHQFEHTAFTEVPAVALEKGLTPLEVAAVGAYTKGLQDWQSGGHEWFMRSSRYMNKGERPLAGWQALTGPGTSAADVGALLADAVAQRARSYT
notes: as for B1

substrate: CC(C)=CCC/C(C)=C/CC/C(C)=C/CO[P@@](=O)(O)OP(=O)(O)O; test: steady-state kinetics of purified enzyme (details in supplement); type: biochemical, Streptomyces coelicolor; settings: Mg2+-dependent enzyme; assay conditions in supplement
Description: steady-state kinetics of purified enzyme (details in supplement) on Gd11olS (germacradien-11-ol synthase; N-terminal domain of geosmin synthase)

First: B1
Second: B2
The Km of the first is 13-fold lower: 0.3 ± 0.06 µM for the first, 3.8 ± 1.5 µM for the second.

First: B3
Second: B4
The Km of the first is 6.3-fold higher: 5.7 ± 0.9 µM for the first, 0.9 ± 0.09 µM for the second.

B5 and B6 are within error of each other in Km: 0.4 ± 0.07 µM for the first, 0.5 ± 0.08 µM for the second.

B7 and B8 are within 1.5-fold of each other in Km: 0.8 ± 0.10 µM for the first, 1.10 ± 0.14 µM for the second.

Going from B9 to B10, the Km rises from 0.5 ± 0.07 µM to 1.12 ± 0.10 µM (2.2-fold).

B11 showed a Km of 1.8 ± 0.5 µM.

Compared with B1, B2 is 5.2-fold lower in kcat: 0.000194 ± 1e-07 s⁻¹ for the first, 3.7e-05 ± 5e-06 s⁻¹ for the second.

Compared with B3, B4 is 6.2-fold higher in kcat: 4.08e-05 ± 2e-06 s⁻¹ for the first, 0.000255 ± 6e-07 s⁻¹ for the second.

Compared with B5, B6 is 13-fold higher in kcat: 4.02e-05 ± 1e-07 s⁻¹ for the first, 0.000524 ± 2e-07 s⁻¹ for the second.

Going from B7 to B8, the kcat falls from 0.0001814 ± 4e-07 s⁻¹ to 6.9e-05 ± 2e-07 s⁻¹ (2.6-fold).

B9 and B10 are within 1.5-fold of each other in kcat: 5.02e-05 ± 1e-07 s⁻¹ for the first, 3.8e-05 ± 1e-07 s⁻¹ for the second.

B11 gave a kcat of 2.3e-05 ± 2e-07 s⁻¹.
